Reference: the supplement of paper PMC10567573

B1: CDKL4 (parent)
chain: AVKKFVESEDDPVVKKIALREIRM
B2: SPOPL (parent)
chain: YTGRAPNLDKMADNLLAAADKYAL

Variants of: B1
Assay: protein stability index of a GFP-peptide fusion (GPS, HEK-293T) (PSI 1-6); higher = more stable
Conditions: c terminus: a fixed tail appended
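Also: lentivirally expressed fusions sorted by FACS into six bins by GFP to DsRed ratio, PSI derived from sequencing read proportions per bin multiplied by bin number.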

Protein stability index of substitutions, site by site:
K16: P 2.61, V 2.27, D 3.48, M 3.17, A 3.77, T 3.11, Q 3.48, E 3.95, L 2.63, Y 2.44, N 3.52, W 2.05, H 3.22, F 2.77, S 3.23, G 3.57, C 2.92, I 2.19, R 3.18
E21: T 2.4, P 2.57, L 2.69, N 2.96, S 2.35, H 2.95, I 2.99, R 3.02, K 2.48, F 1.7, W 3.91, M 1.46, Y 2.69, C 2.37, V 2.46, G 3.24, Q 2.45, A 2.42
L19: S 4.41, F 2.09, I 3.03, E 4.76, C 4.26, V 3.47, M 3.16, T 4.34, A 3.87, H 3.76, R 2.96, G 4.26, W 3.15, N 3.86, P 4.24, Y 3.41, Q 4.22, D 3.97, K 3.67
R23: H 3.14, I 1.71, E 4.24, Y 2.27, F 1.93, W 2.03, V 1.44, D 3.95, N 4.2, T 2.74, L 1.45, K 3.29, Q 3.29, C 2.78, S 2.75, G 3.16, A 2.03, P 3.67
A18: S 3.4, Y 2.69, E 3.37, M 1.94, C 2.25, I 2.21, K 3.03, R 2.76, Q 3.79, P 3.57, T 3.45, H 2.79, V 2.6, N 3.35, F 1.76, L 2.29, W 2.43, D 3.84, G 3.65
I17: F 2.79, P 3.53, D 4.36, N 3.7, K 3.87, R 3.45, A 3.95, T 4.48, L 2.57, Y 2.85, M 2.87, G 3.08, V 3.22, Q 3.46, W 2.15, H 3.33, C 3.32, S 4.28, E 3.93
I22: H 4.06, A 3.82, G 3.66, Y 3.35, T 4.01, S 3.97, C 3.32, W 2.92, F 2.18, P 4.54, Q 3.62, M 3.29, V 2.57, E 4.04, D 4, L 3.11, K 4.29, R 4.03, N 4.22
D10: Q 2.8, C 2.15, W 2.16, F 1.77, P 2.72, T 2.78, L 1.68, M 2.65, R 3.15, S 2.83, K 2.68, I 1.81, N 2.91, G 3.07, V 2.23, A 2.58, Y 1.84, E 2.99, H 2.82
V13: G 3.54, K 3.27, S 3.48, Y 2.3, T 3.77, I 2.83, L 2.93, P 3.29, A 3.23, C 2.67, M 2.73, E 3.35, R 3.08, N 3.28, D 3.67, W 2.49, H 3.11, Q 3.47, F 2.5
V14: L 2.89, D 3.48, K 2.82, E 4.1, G 2.97, N 3.5, R 3.44, Y 2.54, M 2.69, I 2.56, C 3.74, T 3.26, F 2.01, W 2.65, H 3.38, A 3.01, S 2.98, P 3.12, Q 3.71
D11: V 2.44, Y 2.46, A 2.61, Q 2.81, L 1.81, S 2.87, G 1.8, N 3.19, K 3.22, R 2.61, T 3, H 2.96, M 2.44, I 2.58, P 2.81, F 2.25, E 3.15, W 3.34, C 2.16
M24: I 2.97, L 2.74, R 3.23, Y 3.86, G 3.07, F 2.6, H 3.59, E 3.41, W 2.48, T 3.15, S 3.71, D 3.73, K 3.11, C 2.76, Q 3.92, N 2.95, V 3.36, P 3.43
R20: P 2.87, I 1.39, Y 2.25, Q 3.49, E 3.74, W 2.43, V 1.46, K 3.67, D 3.56, H 2.63, L 2.44, G 3.03, C 2.92, A 3.21, S 3.19, T 2.88, F 1.5, M 2.13, N 3.74
K15: T 2.66, Y 1.81, I 2.4, D 3.59, R 2.81, V 1.6, N 2.88, E 3.44, H 3.14, Q 2.86, G 2.82, L 1.95, S 2.59, A 2.26, P 3.46, W 2.06, F 2.58, M 1.87, C 2.52
P12: A 3.04, D 3.22, N 3.08, I 2.52, L 2.55, Q 2.45, K 3.23, E 3.88, W 1.82, V 2.48, M 1.95, Y 2.18, T 2.76, G 2.57, H 2.77, C 3.05, S 2.99, F 2.66, R 3.46
E9: K 2.69, P 2.34, N 2.56, L 1.64, Q 3.19, H 2.71, S 2.97, G 2.43, R 2.51, T 3.02, Y 1.74, W 2.38, M 1.76, F 2.09, V 2.48, I 2.51, D 2.69

Variants of: B2
Assay: as above
Conditions: c terminus: a fixed tail appended

Protein stability index, by site and new letter:
Y1: M 3.06, A 2.15, L 2.63, N 3.81, H 3.8, T 3.37, C 3.08, W 2.94, E 4.07, V 1.76, I 2.16, P 3.65, D 4.63, K 3.61, G 4.11, Q 4.13
T2: W 2.01, P 2.75, S 2.75, M 2.24, Y 2.15, D 3.75, A 1.32, H 2.4, Q 2.29, F 2.47, G 2.79, E 3.81, V 2.97, R 2.43, I 1.98, N 2.93, K 2.49, L 2.76
G3: A 2.17
